The data set can be described thus: amyloid nucleation score (Sup35N fusion, yeast selection) (log enrichment); library NNK3; higher = more nucleation; inactive = no reads after selection. The gist of the method: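 Yeast lacking psi expressed peptides of 20 random codons fused to Sup35N, received 100 μM copper sulfate for 24 hours, and were then grown for 7 days at 30°C on medium lacking adenine and uracil. Illumina sequencing of input and output plasmid inserts provided the reads. Nucleation scores are DiMSum log enrichments of output over input, centred on the mode of non-aggregating sequences. Any sequence with under 100 input reads was excluded.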

We go through 98 substances from the supplement of paper PMC12042874.

± gives the uncertainty stated by the source.

Substance VLWPADFGCPARVQESGSSQ gave an amyloid nucleation score of -0.387 ± 1.5.

Regarding RYSVARIRCTTGNVDVYV, the amyloid nucleation score is -0.281 ± 1.2.

Substance SSIVENGCNTERSPMIGCVS had an amyloid nucleation score of -0.576 ± 0.88.

VINCIDMRLVYMLGETFFNY gave an amyloid nucleation score of 2.03 ± 0.083.

In the case of FILSVWLYTS, the amyloid nucleation score entry was “inactive”.

In the case of HILVKITR, the amyloid nucleation score came to 0.359 ± 0.71.

For the substance IQLAYIPEMALPTSWARVSG, the amyloid nucleation score entry is “inactive”.

For the substance HWCYRSFMTPAPPNLLPQPQ, the amyloid nucleation score result was “inactive”.

For QAIGSKRT, the amyloid nucleation score entry is “inactive”.

Consider YWNIMIGYLLKSTGSGRSA, for which the amyloid nucleation score result was “inactive”.

As to LGYMLNGGRMQKNATNKSGA, the amyloid nucleation score result was “inactive”.

Regarding NYGGFKDFG, the amyloid nucleation score is 1.51 ± 0.088.

Regarding LYILGQIFR, the amyloid nucleation score entry was “inactive”.

In the case of RFNFNFFRSRSHLSVFTQFG, the amyloid nucleation score entry was “inactive”.

As to LRKPYLEY, the amyloid nucleation score result was “inactive”.

As to KCLGFHKHGALFTAYWGQTS, the amyloid nucleation score entry is “inactive”.

With NRFVIIFSCLCFCPQSDMEL, the amyloid nucleation score is 2.37 ± 0.083.

As to PNIMCYLVAMCVGLKFPARW, the amyloid nucleation score entry is “inactive”.

As for FVMGMNAVQRSLSSIYTLCV, the amyloid nucleation score entry is “inactive”.

For the substance NCWVNKIDVFLAESSMQCKA, the amyloid nucleation score entry was “inactive”.

As to GCIRLGLNSVGVNNIVA, the amyloid nucleation score result is “inactive”.

MIDDYRECSYIYF: the amyloid nucleation score result is “inactive”.

For SRVISLFSGVCRGLRGYVNR, the amyloid nucleation score entry is “inactive”.

In the case of VMSFVFNTSLWSMYIRIGSP, the amyloid nucleation score result was “inactive”.

LTSLVLVLLLCSTRNGNGTC returned an amyloid nucleation score of 1.55 ± 0.085.

For GAGPGLITMSNSN, the amyloid nucleation score entry is “inactive”.

For GTTYTAHYAWSTVGDIWSLH, the amyloid nucleation score result was “inactive”.

As for LCHSSRGDIH, the amyloid nucleation score entry is “inactive”.

Turning to DRSIS, the amyloid nucleation score entry was “inactive”.

On to MIRLSDTRRWIVYFHQCLCG, for which the amyloid nucleation score is -0.748 ± 1.

Consider VMFLEDSVFV, for which the amyloid nucleation score result was “inactive”.

For the substance GAFMLEGAIRRFS, the amyloid nucleation score result was “inactive”.

For the substance KLDTVYRPSMRACVCNREFV, the amyloid nucleation score was -0.515 ± 1.1.

CKLCTFSKRLNLTFRMVASL: the amyloid nucleation score result is “inactive”.

AKVKIWAWASIGCPPMQALV: the amyloid nucleation score result is “inactive”.

Consider YMNSVACSEMFSFSGLWEWW, for which the amyloid nucleation score entry was “inactive”.

VCYYRQACTITNLLVMVFVC: the amyloid nucleation score result was “inactive”.

Take LFLDVSIYVCPEGILRKS: the amyloid nucleation score was 2.65 ± 0.084.

For the substance ALQFATVDGKVLSI, the amyloid nucleation score result is “inactive”.

Consider LVCFPGTSFAGVCDW, for which the amyloid nucleation score entry is “inactive”.

With RPFNHVDISYAKPLDNFWM, the amyloid nucleation score was -0.582 ± 0.98.

In the case of KLVWRERICEDGFYIKTTFL, the amyloid nucleation score result was “inactive”.

GYRYIVDLG: the amyloid nucleation score result is “inactive”.

Regarding YSSSRLI, the amyloid nucleation score entry is “inactive”.

SLTSSFFSSMDVFNSALKGG: the amyloid nucleation score entry was “inactive”.

As for LCSHLEVDSL, the amyloid nucleation score entry was “inactive”.

Take CNGLNRIVDLNWNMMSIMRS: the amyloid nucleation score entry was “inactive”.

For IDELLSLQLHRIHKLLEMHG, the amyloid nucleation score result is “inactive”.

With EALLSSLIIFIDQRGVCEFV, the amyloid nucleation score result is “inactive”.

YLFHLLSDRRCEDMCVVGIK: the amyloid nucleation score result is “inactive”.

In turn, WNIFSYNNSLVWNPEGNESG yielded an amyloid nucleation score of 0.836 ± 0.27.

The substance VSIFCCQPSSVIAVDISDHS came in with an amyloid nucleation score of 2.93 ± 0.068.

Take KIHCAESATVVLWVRVGDCR: the amyloid nucleation score result is “inactive”.

For FTEKGGLPC, the amyloid nucleation score result was “inactive”.

As to SLTVFLWVAQRVAAMRAGVL, the amyloid nucleation score result was “inactive”.

Regarding NALRFNLWMLNTVKVEYRSD, the amyloid nucleation score was 2.15 ± 0.067.

As to YFLRVNGSCANIDDHGLFSW, the amyloid nucleation score entry is “inactive”.

For NISLN, the amyloid nucleation score result was “inactive”.

Take HVRDTKRVSLKRSTYADRGG: the amyloid nucleation score entry was “inactive”.

In the case of PTSFQYRCVSI, the amyloid nucleation score result was “inactive”.

On to ACIYYHTASCKRCQQAIESE, for which the amyloid nucleation score result was “inactive”.

For SIKLGFYIIIFDLWYSPMMV, the amyloid nucleation score entry was “inactive”.

As to FVWNERWKIRLYLMSFGRGR, the amyloid nucleation score is 2.35 ± 0.065.

With NEFVSYNLLVTGGWSRCWYF, the amyloid nucleation score result was “inactive”.

In turn, AVRMICDSCAYSLPTWVDLA yielded an amyloid nucleation score of -0.592 ± 1.4.

AYNGK: the amyloid nucleation score entry is “inactive”.

Regarding NENFTNAQQNFYDCVF, the amyloid nucleation score result is “inactive”.

Take KYCGQLQFRCIELEGGIKRE: the amyloid nucleation score result is “inactive”.

Regarding KCAVDTV, the amyloid nucleation score entry is “inactive”.

For the substance FCTVNH, the amyloid nucleation score entry is “inactive”.

For TLFERRCSGTIMHRIQRREF, the amyloid nucleation score entry was “inactive”.

As to MRLRLYINVSG, the amyloid nucleation score result was “inactive”.

Substance TFGWINVAYSYSFSICGCTG showed an amyloid nucleation score of 2.62 ± 0.051.

As for YKIMTLYTSCKRFEVHRGCT, the amyloid nucleation score entry was “inactive”.

Regarding YMTGLD, the amyloid nucleation score result was “inactive”.

For RIWPSGSC, the amyloid nucleation score result was “inactive”.

IIWLWGNNGKYTMGFLGIGG: the amyloid nucleation score result is “inactive”.

NYFGPGKQWPID: the amyloid nucleation score result is “inactive”.

On to SSERSGRRRNWSVRSCLVGQ, for which the amyloid nucleation score result is “inactive”.

Turning to SDISRQYICVMYVSRLRG, the amyloid nucleation score entry is “inactive”.

In the case of YYGGVLVSHRKPSGVCYGYG, the amyloid nucleation score entry was “inactive”.

Regarding VDNSFEYIWDLFTVDHMSGA, the amyloid nucleation score result was “inactive”.

Substance NSCIFQTRMSGSYETVYHAP had an amyloid nucleation score of 0.054 ± 0.45.

With IRRSLAR, the amyloid nucleation score entry was “inactive”.

Regarding NAIGEISSVYSCTL, the amyloid nucleation score result was “inactive”.

For CCSKFHAQN, the amyloid nucleation score result was “inactive”.

For the substance IPRWKFN, the amyloid nucleation score is -0.57 ± 1.1.

As to YVYESFGWVSGNFKVWF, the amyloid nucleation score entry was “inactive”.

Take TYLIWLGHRAHPMSLLHSFA: the amyloid nucleation score entry was “inactive”.

Consider YSVPCSWWTLQLGILPLSRR, for which the amyloid nucleation score result was “inactive”.

YRCFLNFIEMIDTCAGDLES: the amyloid nucleation score entry is “inactive”.

As for LSSDGFYFNTEYL, the amyloid nucleation score result was “inactive”.

CRCMTR: the amyloid nucleation score result is “inactive”.

Take LYDISGPM: the amyloid nucleation score result was “inactive”.

As for RYPLSDDPLGIVWITYMLAN, the amyloid nucleation score entry is “inactive”.

As to RINSRHLLNVLAVRKTIQGS, the amyloid nucleation score result is “inactive”.

For the substance ACSYVGTKMLPGANLRDKPW, the amyloid nucleation score was -0.387 ± 1.5.

In the case of SRISKMSELIYRLRYIVILV, the amyloid nucleation score result was “inactive”.
